Test results from the emibetuzumab library of Makowski et al. (2022).

B1: VH:VL chains; a variant is named by its letters at X, in order (parent)
chain 1: QVQLVQSGAEVKKPGASVKVSCKASGYTFTDYXMHWVRQAPGQGLEWMGXVNPNXXXTTYNQKFEGRVTMTTDTSTSTAYMELRSLRSDDTAVYYCARXNXLDXWGQGTTVTVSS
chain 2: DIQMTQSPSSLSASVGDRVTITCSVSSSVSSIYLHWYQQKPGKAPKLLIYSTSNLASGVPSRFSGSGSGTDFTLTISSLQPEDFATYYCQVYSGYPLTFGGGTKVEIK

Variants of: B1
Test: yeast display scFab, FACS + sequencing
Summary of the method: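 The non-specific binding call was based on sorted and sequenced yeast displaying a heavy-chain CDR mutant scFab library. Labelling used anti-Myc with biotinylated ovalbumin (260 μg/mL in PBSB, 3 h, room temperature) or soluble membrane proteins (130 μg/mL, 20 min on ice), and FACS collected the top 25% and bottom 10% of binders in two replicates. Positive meant present in ≥3 of 4 pooled positive samples and in no negatives, and negative meant the converse.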

Q: Which non-specific binding call does the source give for YRERGAAD here?
A: binds

Q: Which non-specific binding call does the source give for YRERGAAF here?
A: binds

Q: With YRERGAAV as the variant, how does the non-specific binding call read?
A: binds

Q: Which non-specific binding call does the source give for YRERGAAA here?
A: binds

Q: Which non-specific binding call does the source give for VRARGSSF here?
A: binds

Q: Which non-specific binding call does the source give for FRGADFGD here?
A: binds

Q: Which non-specific binding call does the source give for FREGGSGD here?
A: binds

Q: For YRARSALD, which non-specific binding call is on record?
A: binds

Q: With VRERGAWD as the variant, how does the non-specific binding call read?
A: binds

Q: With AREGDAGD as the variant, how does the non-specific binding call read?
A: no binding

Q: With YRGAGYGS as the variant, how does the non-specific binding call read?
A: binds

Q: Which non-specific binding call does the source give for YRGEAFLY here?
A: binds

Q: For FREGSASV, which non-specific binding call is on record?
A: binds

Q: For YRGASSGF, which non-specific binding call is on record?
A: binds

Q: Which non-specific binding call does the source give for YRARSSVA here?
A: binds

Q: Which non-specific binding call does the source give for YRARSSVV here?
A: binds

Q: For DREEGAVY, which non-specific binding call is on record?
A: no binding

Q: For DREEGAVA, which non-specific binding call is on record?
A: no binding

Q: For DREEGAVV, which non-specific binding call is on record?
A: no binding

Q: For DRGEGAGD chain 1 G42D, which non-specific binding call is on record?
A: no binding

Q: For SREGGFAA, which non-specific binding call is on record?
A: binds

Q: For YRGESAWV, which non-specific binding call is on record?
A: binds

Q: For YREKGSAA, which non-specific binding call is on record?
A: binds

Q: With YRGAGAVY as the variant, how does the non-specific binding call read?
A: binds

Q: Which non-specific binding call does the source give for YRGAGAVS here?
A: binds

Q: Which non-specific binding call does the source give for YRGAASAV here?
A: binds

Q: Which non-specific binding call does the source give for YREGGFVA here?
A: binds

Q: With YREEGDVF as the variant, how does the non-specific binding call read?
A: no binding

Q: With FRGEGAAD as the variant, how does the non-specific binding call read?
A: binds

Q: With YREGDFVD as the variant, how does the non-specific binding call read?
A: binds

Q: For FRGEGSGV, which non-specific binding call is on record?
A: binds

Q: Which non-specific binding call does the source give for ARERGDGY here?
A: no binding

Q: With VRERGSLY as the variant, how does the non-specific binding call read?
A: binds

Q: Which non-specific binding call does the source give for YRGAGSGD here?
A: binds

Q: For YRGAGSGV, which non-specific binding call is on record?
A: binds

Q: For YRGAGSGS, which non-specific binding call is on record?
A: binds

Q: With YRGAGSGY as the variant, how does the non-specific binding call read?
A: binds

Q: With YRERSSLD as the variant, how does the non-specific binding call read?
A: binds

Q: For FRGEGFSV, which non-specific binding call is on record?
A: binds

Q: With YRGAGAGA as the variant, how does the non-specific binding call read?
A: binds

Q: With YRGAGAGS as the variant, how does the non-specific binding call read?
A: binds

Q: With YRGAGAGV as the variant, how does the non-specific binding call read?
A: binds

Q: Which non-specific binding call does the source give for DREGDYLY here?
A: no binding

Q: With VRERGSWD as the variant, how does the non-specific binding call read?
A: binds

Q: For VRERGSWV, which non-specific binding call is on record?
A: binds

Q: Which non-specific binding call does the source give for YRGAAASS here?
A: no binding

Q: For VRERGSSF, which non-specific binding call is on record?
A: no binding

Q: With FRERGSWV as the variant, how does the non-specific binding call read?
A: binds

Q: For FREEGFSV, which non-specific binding call is on record?
A: no binding

Q: Which non-specific binding call does the source give for DREEGDVV here?
A: no binding

Q: With YRERAAGY as the variant, how does the non-specific binding call read?
A: binds

Q: Which non-specific binding call does the source give for VRERGAGS here?
A: binds

Q: With VREAADSF as the variant, how does the non-specific binding call read?
A: no binding

Q: With YRGEGAWV as the variant, how does the non-specific binding call read?
A: binds

Q: For DREEGSGD, which non-specific binding call is on record?
A: no binding

Q: Which non-specific binding call does the source give for FRERGDGA here?
A: binds

Q: With VRERGDLV as the variant, how does the non-specific binding call read?
A: no binding

Q: Which non-specific binding call does the source give for FRGESSAD here?
A: binds

Q: Which non-specific binding call does the source give for VREGDDAV here?
A: no binding

Q: With YREGGSGV as the variant, how does the non-specific binding call read?
A: binds

Q: For YREGDASD, which non-specific binding call is on record?
A: no binding

Q: For YRERDSAD, which non-specific binding call is on record?
A: binds

Q: Which non-specific binding call does the source give for FRERGAAA here?
A: binds

Q: For YRERGSAA, which non-specific binding call is on record?
A: binds

Q: With YRERGSAD as the variant, how does the non-specific binding call read?
A: binds

Q: Which non-specific binding call does the source give for YRERGSAV here?
A: binds

Q: With SRATAYSD as the variant, how does the non-specific binding call read?
A: binds

Q: Which non-specific binding call does the source give for AREEGFSV here?
A: no binding

Q: For VRATGSVY, which non-specific binding call is on record?
A: binds

Q: With DRARTFVA as the variant, how does the non-specific binding call read?
A: binds

Q: With YRARSAGY as the variant, how does the non-specific binding call read?
A: binds

Q: With YRARSAGF as the variant, how does the non-specific binding call read?
A: binds

Q: For YRARSAGV, which non-specific binding call is on record?
A: binds

Q: Which non-specific binding call does the source give for YRARSAGA here?
A: binds

Q: With SREAASLA as the variant, how does the non-specific binding call read?
A: no binding

Q: Which non-specific binding call does the source give for ARARGSWV here?
A: binds

Q: Which non-specific binding call does the source give for YRGAASSD here?
A: binds

Q: For YRARSAVV, which non-specific binding call is on record?
A: binds

Q: Which non-specific binding call does the source give for YRARSAVY here?
A: binds

Q: For YRARSAVA, which non-specific binding call is on record?
A: binds

Q: For YRARSAVD, which non-specific binding call is on record?
A: binds

Q: For FRERGAVV, which non-specific binding call is on record?
A: binds

Q: With YRARSSGA as the variant, how does the non-specific binding call read?
A: binds

Q: With YRARSSGV as the variant, how does the non-specific binding call read?
A: binds

Q: Which non-specific binding call does the source give for VRATGYWA here?
A: binds

Q: Which non-specific binding call does the source give for VRERGVGV here?
A: binds

Q: For YRARSSAA, which non-specific binding call is on record?
A: binds

Q: With YRARSSAD as the variant, how does the non-specific binding call read?
A: binds

Q: For VREGAAAV, which non-specific binding call is on record?
A: no binding

Q: For FRGADSGF chain 1 R98K, which non-specific binding call is on record?
A: binds

Q: With YRGAGYAA as the variant, how does the non-specific binding call read?
A: binds

Q: With YRARSASA as the variant, how does the non-specific binding call read?
A: binds

Q: Which non-specific binding call does the source give for YRARSASV here?
A: binds

Q: Which non-specific binding call does the source give for YRGGAAAA here?
A: binds

Q: Which non-specific binding call does the source give for YRGAGSAD here?
A: binds

Q: With VRARGVVA as the variant, how does the non-specific binding call read?
A: binds

Q: With YRGANSVF as the variant, how does the non-specific binding call read?
A: binds

Q: For YRARSDVF, which non-specific binding call is on record?
A: no binding

Q: For FRATSAVD, which non-specific binding call is on record?
A: binds

Q: With DREEGSSY as the variant, how does the non-specific binding call read?
A: no binding

Q: Which non-specific binding call does the source give for DREEGSSA here?
A: no binding

Q: With VREGSSAA as the variant, how does the non-specific binding call read?
A: binds

Q: With DREGDDAV as the variant, how does the non-specific binding call read?
A: no binding

Q: With DREEGDGV as the variant, how does the non-specific binding call read?
A: no binding

Q: Which non-specific binding call does the source give for DREEGDGS here?
A: no binding

Q: With VRGAGAWV as the variant, how does the non-specific binding call read?
A: binds

Q: Which non-specific binding call does the source give for VRERGDWF here?
A: no binding

Q: Which non-specific binding call does the source give for VRERGDWV here?
A: no binding

Q: Which non-specific binding call does the source give for VRERGSAV here?
A: binds

Q: With VRERGSAD as the variant, how does the non-specific binding call read?
A: binds

Q: Which non-specific binding call does the source give for VRGAGSWV here?
A: binds

Q: With FRGESSGA as the variant, how does the non-specific binding call read?
A: binds

Q: Which non-specific binding call does the source give for FRETDFGA here?
A: binds

Q: Which non-specific binding call does the source give for YRERGSWV here?
A: binds

Q: With FRGEGAVS as the variant, how does the non-specific binding call read?
A: binds

Q: For YRARGSVS, which non-specific binding call is on record?
A: binds

Q: Which non-specific binding call does the source give for YRARGSVF here?
A: binds

Q: For FRERNAAA, which non-specific binding call is on record?
A: binds

Q: Which non-specific binding call does the source give for SREEGFSV here?
A: no binding

Q: With SREAADWA as the variant, how does the non-specific binding call read?
A: no binding

Q: For SREAADWV, which non-specific binding call is on record?
A: no binding

Q: With DREEGFSV as the variant, how does the non-specific binding call read?
A: no binding

Q: With YREGDAAD as the variant, how does the non-specific binding call read?
A: no binding

Q: Which non-specific binding call does the source give for YREETSGA here?
A: binds
